Laboratory results: paper PMC5362899, “Structural insights into the nucleotide base specificity of P2X receptors” (Scientific Reports, 2017)

Target: zebrafish P2X4 construct ΔP2X4-C (ΔN27/ΔC24/N78K/N187R) (zebrafish) (UniProt F8W463)
Assay: crystal structure; ΔP2X4-C (2 mg/ml) with 3 mM CTP; crystals grown at 4 °C by cross-seeding in 20-26% PEG 2000, 300 mM Mg(NO3)2, 100 mM Tris pH 8.0; 2.8 Å

- stoichiometry N: 3
Substance: zebrafish P2X4 construct ΔP2X4-C (ΔN27/ΔC24/N78K/N187R) (from UniProt F8W463 28-365) (receptor)
